Measurements published in article PMC4592603, “Cloning, Expression, Sequence Analysis and Homology Modeling of the Prolyl Endoprotease from Eurygaster integriceps Puton” (Insects, 2014).

Substrate: O=C(NCC(=O)N1CCC[C@H]1C(=O)Nc1ccc([N+](=O)[O-])cc1)OCc1ccccc1
Test: purified protein
Type: biochemical, Eurygaster integriceps
Conditions: 25 mM ethanolamine, pH 8.5, 0.1 M NaCl, 1 mM DTT, 37 °C, abstract prints 210 ± 53 µM

B1: spPEP (sunn pest prolyl endoprotease) (Eurygaster integriceps) (protein)
chain: MKKFQYPEARRDETIKETFFGIEVADPYRWLEDPDSEETKNFVDAQNSISEPYLKGCPARDKIKARLTQMLDYPKYSPPEKEGNHYFYFKNTGLQNHSVLYMQDSLDGPSKVFLDPNTFSSDGTVALTSTSFSEDGSIMGYTVSKSGSDWCTIHFRRVDTGEDYPEELKFVKFGHAAWTHDNLGVFYTRFPEVEGKSDGSETSQNRNQKIYYHKVGTPQSEDILVVELDDPEYIYTVCVSDCGRGVVILPSKFCHNNLVYFSDLSTLKDGIKGKLDVTCIVDKFEADYEFVANTGSKFVFRTNKNAHNYKLVVIDFENHSEENWVTLVPEHPTDVLEQAVSVAQDKLVLCYIRDVKNTLDIHSLVDGSLIRKIPVPIGTVSSISGSKKHSEVFYTFISFTSPGTIYRCDLSQSPIPDPEVFRQITIPGYDPSMFEEKQVFYLSKDGTRIPMFLVHKKVLEQNGKNPCLVYGYGGFNISLLPMFSTIRLVFVQYFNAVFASANIRGGGEYGEKWHDGGRLLNKQNSFDDFIAAGEYLIAEKYTNKSCLAIQGASNGGLLIGASVKPPYWLLEDPEYIYTVCVSDCGRWAVILPSKFCYNNLVYFSVLFQEEHFKNVLKYSPLHNIRVPEDQYPALLLLTASHDDRVVPLHSLKYIAQLQHVMRDNPKQENPLLIQVETKAGHGAGKPTNKRIEEQVDILCFLMNSMNLKFIE
notes: full-length ORF (no signal peptide identified), N-terminal FLAG and 10xHis tag, pNYCOMPS-LIC vector, E. coli BL21(DE3), soluble fraction, Ni-NTA, about 80 kDa, tags not reported cut
Km: 211 ± 53 µM
